Measurements published in patent US20220289850 (published 2022).
“And” between values parts separate entries of the source, which are not always exact repeats. Equal values may be shown once.

T1: mouse integrin avb8 (mouse)
T1 chain 1: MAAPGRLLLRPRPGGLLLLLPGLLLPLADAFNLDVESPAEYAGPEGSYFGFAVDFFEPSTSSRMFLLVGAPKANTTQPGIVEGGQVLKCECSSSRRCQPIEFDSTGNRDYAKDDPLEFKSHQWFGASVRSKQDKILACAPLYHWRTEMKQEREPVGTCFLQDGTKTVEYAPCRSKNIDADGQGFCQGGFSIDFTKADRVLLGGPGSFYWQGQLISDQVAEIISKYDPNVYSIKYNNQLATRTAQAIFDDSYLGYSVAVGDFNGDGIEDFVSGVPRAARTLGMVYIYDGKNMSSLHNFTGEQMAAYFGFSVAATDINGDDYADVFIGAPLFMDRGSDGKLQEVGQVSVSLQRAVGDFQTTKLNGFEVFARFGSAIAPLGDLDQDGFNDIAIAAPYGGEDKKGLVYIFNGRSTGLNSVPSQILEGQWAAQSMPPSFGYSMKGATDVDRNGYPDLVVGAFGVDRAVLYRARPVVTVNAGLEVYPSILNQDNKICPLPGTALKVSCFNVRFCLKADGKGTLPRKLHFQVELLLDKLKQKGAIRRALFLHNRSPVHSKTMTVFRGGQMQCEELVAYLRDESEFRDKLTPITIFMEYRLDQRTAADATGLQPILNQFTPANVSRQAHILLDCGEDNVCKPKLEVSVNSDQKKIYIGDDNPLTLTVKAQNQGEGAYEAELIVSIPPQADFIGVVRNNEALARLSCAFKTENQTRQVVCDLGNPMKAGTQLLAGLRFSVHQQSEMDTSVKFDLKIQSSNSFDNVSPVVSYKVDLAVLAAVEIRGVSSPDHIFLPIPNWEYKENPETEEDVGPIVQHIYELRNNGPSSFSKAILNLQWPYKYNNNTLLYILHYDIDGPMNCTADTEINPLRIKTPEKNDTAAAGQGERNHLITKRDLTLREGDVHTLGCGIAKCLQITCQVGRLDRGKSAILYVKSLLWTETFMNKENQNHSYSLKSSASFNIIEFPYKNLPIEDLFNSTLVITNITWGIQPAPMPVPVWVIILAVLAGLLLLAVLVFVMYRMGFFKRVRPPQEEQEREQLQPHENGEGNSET
T1 chain 2: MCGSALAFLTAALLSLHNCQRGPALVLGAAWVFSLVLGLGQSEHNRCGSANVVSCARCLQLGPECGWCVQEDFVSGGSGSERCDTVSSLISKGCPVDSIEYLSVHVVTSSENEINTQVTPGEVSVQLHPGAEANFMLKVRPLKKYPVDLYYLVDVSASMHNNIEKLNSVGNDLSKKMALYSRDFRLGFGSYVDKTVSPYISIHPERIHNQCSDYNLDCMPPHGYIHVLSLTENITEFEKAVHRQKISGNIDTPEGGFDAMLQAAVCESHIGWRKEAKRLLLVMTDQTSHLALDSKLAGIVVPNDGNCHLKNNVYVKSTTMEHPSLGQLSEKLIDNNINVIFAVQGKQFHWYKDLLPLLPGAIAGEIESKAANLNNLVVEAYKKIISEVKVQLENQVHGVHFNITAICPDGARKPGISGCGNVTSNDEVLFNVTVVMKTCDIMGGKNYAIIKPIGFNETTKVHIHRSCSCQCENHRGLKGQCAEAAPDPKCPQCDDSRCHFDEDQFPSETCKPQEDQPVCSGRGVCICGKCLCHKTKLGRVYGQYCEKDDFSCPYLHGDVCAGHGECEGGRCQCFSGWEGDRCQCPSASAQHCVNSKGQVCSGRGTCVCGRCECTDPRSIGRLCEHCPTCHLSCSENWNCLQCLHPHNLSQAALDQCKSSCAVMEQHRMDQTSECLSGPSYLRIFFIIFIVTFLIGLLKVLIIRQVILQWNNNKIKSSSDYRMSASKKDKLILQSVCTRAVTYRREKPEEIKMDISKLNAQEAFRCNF

B1: ADWA11 VH05/VK01 (VH05-2_VK01) Fab (antibody, V domains shown)
VH: EVQLVESGGGLVQPGGSLRLSCAASGFNIKDYYMNWVRQAPGKGLEWVGWIDPDNGNTIYDPKFQGRFTISADTSKNSAYLQMNSLRAEDTAVYYCARRLLMDYWGQGTLVTVSS
VL: DIQMTQSPSSLSASVGDRVTITCRSTKSLLHFNGNTYLFWYQQKPGKAPKRLIYYMSNLASGVPSRFSGSGSGTDFTLTISSLQPEDFATYYCMQSLEYPFTFGQGTKVEIK
B2: Mouse hybridoma ADWA-11 Fab (antibody, V domains shown)
VH: EVQLQQSGAELVRPGAFVKLSCKASGFNIKDYYMNWVLQRPEQGLEWIGWIDPDNGNTIYDPKFQGKASITADTSSNTAYLQLSSLTSEDTAVYYCARRLLMDYWGQGTSVTVSS
VL: DIVMTQAAPSVPVTPGESVSISCRSTKSLLHFNGNTYLFWFLQRPGQSPQRLIYYMSNLASGVPDRFSGRGSGTDFTLRISRVEAEDVGVYYCMQSLEYPFTFGTGTKLEIK
B3: ADWA11 2.4 Fab (antibody, V domains shown)
VH: EVQLVESGGGLVQPGGSLRLSCAASGFNIKDYYMNWVRQAPGKGLEWVGWIDPDQGNTIYEPKFQGRFTISADTSKNSAYLQMNSLRAEDTAVYYCARRLLMDYWGQGTLVTVSS
VL: DIQMTQSPSSLSASVGDRVTITCRSTKSLSHFNGNTYLFWYQQKPGKAPKRLIYYMSSLASGVPSRFSGSGSGTDFTLTISSLQPEDFATYYCQQSLEYPFTFGGGTKVEIK

Target: T1, mouse integrin avb8
Assay: SPR 25C

Binder	Kd
B1	< 0.1 nM and 0.137 nM
B2	0.489 nM
B3	< 0.2 nM
